Experimental findings from paper PMC2857972 (The Biochemical journal, 2008) are described below.

The data set deals with the molecule itself. Briefly: crystal structure.

B1: Bacillus megaterium SirC (precorrin-2 dehydrogenase), His6-tagged (enzyme)
chain: MYTVMLDLKGRSVLVVGGGTIATRRIKGFLQEGAAITVVAPTVSAEINEWEAKGQLRVKRKKVGEEDLLNVFFIVVATNDQAVNKFVKQHIKNDQLVNMASSFSDGNIQIPAQFSRGRLSLAISTDGASPLLTKRIKEDLSSNYDESYTQYTQFLYECRVLIHRLNVSKSRKHELLTEIIDDQYRLSLVKQREFLQQIEKYK
As for B1, the “stoichiometry N” value stood at 2.
